The target in test [1] is recombinant human CD3eg protein (CD3 epsilon-gamma, heterodimer of CD3 epsilon and CD3 gamma) (human, UniProt P07766 23-126; P09693 23-116). Nature of the test: SPR Biacore 8K, 37 C, pH 7.4; bispecific captured on anti-human Fc, human CD3eg as analyte, 1:1 model. As to the method:
(§1) Binding affinity of the anti-CD3 arm of the anti-DLL3/CD3 bispecific antibodies to CD3 at pH 7.4 was assessed at 37 degrees C. using Biacore 8K instrument (GE Healthcare). Anti-human Fc (GE Healthcare) was immobilized onto all flow cells of a CM4 sensor chip using amine coupling kit (GE Healthcare). The bispecific antibodies were captured onto the anti-Fc sensor surfaces, and then recombinant human CD3eg proteins (CD3 epsilon-gamma, heterodimer of CD3 epsilon and CD3 gamma) was injected over the flow cell. All antibodies and analytes were prepared in ACES pH 7.4 containing 20 mM ACES, 150 mM NaCl, 0.05% Tween 20, 0.005% NaN₃. Sensor surface was regenerated each cycle with 3M MgCl₂.
(Surface plasmon resonance follows binding to a sensor surface in real time, without labels.)

For test [2], the target named is T1, Cynomolgus DLL3 ECD with Myc-tag on N-terminus and His-tag on C-terminus (cynomolgus).
T1 construct: also called Myc-cynoDLL3-His; Cyno DLL3
T1 chain: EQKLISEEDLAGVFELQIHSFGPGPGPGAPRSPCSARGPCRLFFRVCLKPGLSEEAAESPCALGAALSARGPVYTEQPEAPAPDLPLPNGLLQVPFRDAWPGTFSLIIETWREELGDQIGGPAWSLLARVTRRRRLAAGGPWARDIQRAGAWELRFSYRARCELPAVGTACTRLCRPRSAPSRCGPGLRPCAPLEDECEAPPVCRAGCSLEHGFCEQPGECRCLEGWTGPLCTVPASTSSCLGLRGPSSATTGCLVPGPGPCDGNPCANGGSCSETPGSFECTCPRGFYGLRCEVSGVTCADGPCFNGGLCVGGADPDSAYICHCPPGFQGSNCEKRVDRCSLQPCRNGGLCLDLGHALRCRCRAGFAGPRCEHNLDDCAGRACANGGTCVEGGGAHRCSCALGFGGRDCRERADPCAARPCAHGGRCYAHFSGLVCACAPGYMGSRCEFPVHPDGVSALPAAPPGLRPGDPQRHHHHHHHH
Nature of the test: SPR Biacore 8K, 37 C, pH 7.4; bispecific captured on anti-human Fc, DLL3 as analyte, 1:1 model. The method, then: as §1, with “of anti-DLL3” for “of the anti-CD3”, “arm in” for “arm of”, “anti-DLL3/CD3” for “anti-DLL3/CD3 bispecific”, “to human or cynomolgus DLL3” for “to CD3”, “7.4 were” for “7.4 was”, “human or cynomolgus DLL3” for “human CD3eg proteins (CD3 epsilon-gamma, heterodimer of CD3 epsilon and CD3 gamma)”

The target in test [3] is T2, recombinant human DLL3 (human, UniProt Q9NYJ7 27-492).
T2 sequence: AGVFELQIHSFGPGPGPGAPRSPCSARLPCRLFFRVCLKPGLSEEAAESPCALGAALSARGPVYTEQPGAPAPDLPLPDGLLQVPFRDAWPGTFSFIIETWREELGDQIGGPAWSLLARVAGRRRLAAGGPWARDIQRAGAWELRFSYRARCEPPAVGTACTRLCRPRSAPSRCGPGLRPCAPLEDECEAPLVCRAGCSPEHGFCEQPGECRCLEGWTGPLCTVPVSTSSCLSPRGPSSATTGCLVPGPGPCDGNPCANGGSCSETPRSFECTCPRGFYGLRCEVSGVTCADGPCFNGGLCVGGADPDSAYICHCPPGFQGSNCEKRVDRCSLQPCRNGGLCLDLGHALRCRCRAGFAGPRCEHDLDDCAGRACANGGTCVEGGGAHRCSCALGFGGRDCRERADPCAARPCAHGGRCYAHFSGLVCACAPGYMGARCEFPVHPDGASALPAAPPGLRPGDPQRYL
The test is described as above. The method, then: as §1, with “of anti-DLL3” for “of the anti-CD3”, “arm in” for “arm of”, “anti-DLL3/CD3” for “anti-DLL3/CD3 bispecific”, “to human or cynomolgus DLL3” for “to CD3”, “7.4 were” for “7.4 was”, “human or cynomolgus DLL3” for “human CD3eg proteins (CD3 epsilon-gamma, heterodimer of CD3 epsilon and CD3 gamma)”

In test [4] the target is T2, recombinant human DLL3. As to the kind of experiment: Octet binning on SA sensor; Antibody A (biotinylated, loaded first): DL306-SG1; then 20 nM human DLL3, then 80 nM Antibody B. As to the method: (§2) Octet (registered trademark) RED384 (Fortebio) was used to perform competitive binding assays by epitope binning for a panel of antibodies. A biotinylated antibody (DL301-SG1, DL306-SG1, DL309-SG1, DL312-SG1, D30316AE02-SG1, and D30841AE05-SG1) at 40 nM was first loaded to a streptavidin (SA) biosensor. Next, the sensor is exposed to 20 nM of human DLL3, followed by exposure to 80 nM of second antibody. The second antibodies are DL301-SG1, DL306-SG1, DL309-SG1, DL312-SG1, D30316AE02-SG1, D30841AE05-SG1, DLL3-14-SG1, DLL3-22-SG1, DLL3-4-SG1 and DLL3-6-SG1. Raw data was processed using ForteBio's Data Analysis Software 7.0 and the antibody pairs were assessed for competitive binding. Additional binding by the second antibody indicates an unoccupied epitope (non-competitor), while no binding indicates epitope blocking (competitor).
(§3) The competition ratio of antibody B to antibody A was calculated using the following equation: Competition Ratio (Antibody B to Antibody A)=[Binding Response (Antibody B-Antigen)]/[Binding Response (Antigen-Antibody A)]
In general terms: Biolayer interferometry detects binding as a change in optical thickness at a sensor tip.

Test [5] concerns the target T2, recombinant human DLL3. Nature of the test: Octet binning on SA sensor; Antibody A (biotinylated, loaded first): DL312-SG1; then 20 nM human DLL3, then 80 nM Antibody B. As to the method: as §2, §3
In test [6] the target is T2, recombinant human DLL3. As to the kind of experiment: Octet binning on SA sensor; Antibody A (biotinylated, loaded first): D30841AE05-SG1; then 20 nM human DLL3, then 80 nM Antibody B. The method, then: as §2, §3
Test [7] has as its target T2, recombinant human DLL3. As to the kind of experiment: Octet binning on SA sensor; Antibody A (biotinylated, loaded first): D30316AE02-SG1; then 20 nM human DLL3, then 80 nM Antibody B. The method, then:
as §2, §3

Test [8] addresses T2, recombinant human DLL3. As to the kind of experiment: Octet binning on SA sensor; Antibody A (biotinylated, loaded first): DL301-SG1; then 20 nM human DLL3, then 80 nM Antibody B. As to the method:
as §2, §3

Test [9] addresses T2, recombinant human DLL3. Nature of the test: Octet binning on SA sensor; Antibody A (biotinylated, loaded first): DL309-SG1; then 20 nM human DLL3, then 80 nM Antibody B. As to the method: as §2, §3

Chain of recombinant human CD3eg protein (CD3 epsilon-gamma, heterodimer of CD3 epsilon and CD3 gamma) (P07766 23-126 limits assumed, chain 1 of 2): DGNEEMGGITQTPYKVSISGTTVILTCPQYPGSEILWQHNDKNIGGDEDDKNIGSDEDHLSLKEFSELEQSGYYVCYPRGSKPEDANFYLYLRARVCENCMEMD
Chain of recombinant human CD3eg protein (CD3 epsilon-gamma, heterodimer of CD3 epsilon and CD3 gamma) (P09693 23-116 limits assumed, chain 2 of 2): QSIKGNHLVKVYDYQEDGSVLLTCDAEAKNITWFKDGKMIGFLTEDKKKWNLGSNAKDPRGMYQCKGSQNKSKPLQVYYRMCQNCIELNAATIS

B1: D30316AE03/TR01 (bispecific antibody, V domains shown)
VH 1: EVQLVESGGGLVQPGGSLRLSCAASGFTFSNYGVSWVRQAPGQGLEWMGYIDIAFGRTYYASWVTGRITINPDTSKNQFSLQLNSVTPEDTAVYYCARVALVVAGVAYYGMDVWGQGTLVTVSS
VL 1: DIVMTQSPDSLAVSLGERATINCQASQNIYSYLSWYQQKPGKAPKLLIYRTSTLASGVPDRFSGSGSGTDFTLKISRVEAEDVGVYYCQSYYYSSGSSYGAFAFGQGTKVEIK
VH 2: QVQLVESGGGVVQPGGSLRLSCAASGFTFSNAWMHWVRQAPGKGLEWVAQIKDKSQNYATYVAESVKGRFTISRADSKNSIYLQMNSLKTEDTAVYYCRYVHYAAGYGVDIWGQGTTVTVSS
VL 2: DIVMTQSPLSLPVTPGEPASISCRSSQPLVHSNRNTYLHWYQQKPGQAPRLLIYKVSNRFSGVPDRFSGSGSGTDFTLKISRVEAEDVGVYYCGQGTQVPYTFGQGTKLEIK
notes: IgG-type anti-DLL3/CD3 bispecific made by Fab arm exchange
Take B1: the Kd (in general, the constant that tells how readily two partners part at equilibrium) in [1] was 127 nM; in [2], 0.0117 nM; in test [3], 0.0261 nM. The values for the koff in test [1], in test [2] and in test [3] were 0.0169 s⁻¹, 2.72e-05 s⁻¹ and 6.11e-05 s⁻¹, respectively. Moreover, the values for the association rate constant (kon) in test [1], in test [2] and in test [3] were 134000 M⁻¹ s⁻¹, 2.32e+06 M⁻¹ s⁻¹ and 2.34e+06 M⁻¹ s⁻¹, respectively.

B2: D30316AE03/AN395 (bispecific antibody, V domains shown)
VH 1: EVQLVESGGGLVQPGGSLRLSCAASGFTFSNYGVSWVRQAPGQGLEWMGYIDIAFGRTYYASWVTGRITINPDTSKNQFSLQLNSVTPEDTAVYYCARVALVVAGVAYYGMDVWGQGTLVTVSS
VL 1: DIVMTQSPDSLAVSLGERATINCQASQNIYSYLSWYQQKPGKAPKLLIYRTSTLASGVPDRFSGSGSGTDFTLKISRVEAEDVGVYYCQSYYYSSGSSYGAFAFGQGTKVEIK
VH 2: QVQLVESGGGLVQPGRSLRLSCAASGFTFSNAWMHWVRQAPGKGLEWVAQIKDKANGYNAYYAPSVKGRFTISRDDSKNSIYLQMNSLKTEDTAVYYCRYVHYTTFGFGLSYGGVDAWGQGTTVTVSS
VL 2: DIVMTQSPLSLPVTPGEPASISCRSSQPLVHSNRNTYLHWYQQKPGQAPRLLIYKVSNRFSGVPDRFSGSGSGTDFTLKISRVEAEDVGVYYCGQGTQVPYTFGQGTKLEIK
notes: as for B1
For the molecule B2, in test [1], the equilibrium dissociation constant (Kd) is 30.7 nM; the koff (as a rule, the rate constant with which the complex falls apart) amounted to 0.00743 s⁻¹; the kon – broadly, the rate constant with which the complex forms – amounted to 242000 M⁻¹ s⁻¹.

B3: DLL3-6-SG1 (antibody, human IgG1, kappa, V domains shown)
VH: QVQLQESGPGLVKPSETLSLTCTVSGASISSFYWSWIRQPPGKGLEWIGYIYYSGTTNYNPSLKSRVTISVDTSKNQFSLKLSSVTAADTAVYYCARIAVAGFFFDYWGQGTLVTVSS
VL: EIVLTQSPGTLSLSPGERATLSCRASQSVNKNYLAWYQQKPGQAPRLLIYGASSRATGIPDRFSGSGSGTDFTLTISRLEPEDFAVYYCQQYDRSPLTFGGGTKVEIKR
notes: Variable regions of a previously reported anti-DLL3 antibody on SG1/SK1; Used as a second antibody only
In the case of B3, the “competition ratio (Antibody B to Antibody A)” value (“competition ratio” for short) was 1.3 in [4]; 1.3 in test [5]; 1.3 in test [6]; 1.3 in [7]; 1.2 in test [8]; 1 in test [9].

B4: DLL3-4-SG1 (antibody, human IgG1, kappa, V domains shown)
VH: QVQLQESGPGLVKPSETLSLTCTVSGGSISSYYWSWIRQPPGKGLEWIGYVYYSGTTNYNPSLKSRVTISVDTSKNQFSLKLSSVTAADTAVYYCASIAVTGFYFDYWGQGTLVTVSS
VL: EIVLTQSPGTLSLSPGERVTLSCRASQRVNNNYLAWYQQRPGQAPRLLIYGASSRATGIPDRFSGSGSGTDFTLTISRLEPEDFAVYYCQQYDRSPLTFGGGTKLEIKR
notes: as for B3
Turning to B4, the “competition ratio” value in test [4] was 1.3; in test [5], 1.3; in test [6] it was 1.3; in test [7], 1.3; in test [8], 1.2; in [9] it was 1.

B5: DLL3-22-SG1 (antibody, human IgG1, kappa, V domains shown)
VH: QVQLQESGPGLVKPSETLSLTCTVSGDSISSYYWTWIRQPPGKGLEWIGYIYYSGTTNYNPSLKSRVTISVDTSKSQFSLKLSSVTAADTAVYYCASIAVRGFFFDYWGQGTLVTVSS
VL: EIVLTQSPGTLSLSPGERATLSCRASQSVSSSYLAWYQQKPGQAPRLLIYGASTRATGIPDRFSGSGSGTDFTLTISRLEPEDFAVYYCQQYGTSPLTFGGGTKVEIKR
notes: as for B3
Take B5: the “competition ratio” value in test [4] stood at 1.3; in test [5], 1.3; in [6] it was 1.3; in test [7], 1.3; in [8] it was 1.2; in [9], 0.9.

B6: DL301-SG1 (antibody, human IgG1, kappa, V domains shown)
VH: QVQLQQSGADLVRPGTSVKVSCKASGYAFTNYLIEWIKQRPGQGLEWIGVMNPGSGGTHYSEKFRGKATLTADKSSSTAYMQLISLTSDDSAVYFCARSDYDYVTYAMDYWGQGTSVTVSS
VL: DIKMTQSPSSMYASLGERVTITCKASQDINSYLIWFQQKPGKSPKTLIYRTNRLVDGVPSRFSGSGSGQDYSLTISSLEYGDMGIYYCLQYDEFPFTFGSGTKLEIKR
notes: Variable regions of a previously reported anti-DLL3 antibody on SG1/SK1; Also used biotin-labelled as a first antibody
Take B6: the “competition ratio” value in test [4] was 1.3; in [5], 1.3; in test [6], 1.3; in test [7] it was 1.3; in test [8], -0.1; in [9] it was 1.2.

The values above are taken from patent US20240150465A1 (Chugai, published 2024).
